Data on eleven molecules can be found in doi:10.1101/2023.10.16.562450 (bioRxiv, 2023).

For assay [1], the target named is recombinant ZIKV sNS1 (full-length ZIKV NS1, residues 3-352, GZ02 strain) (Zika virus (GZ02 strain)). In words: negative staining EM.
Assay [2] deals with recombinant ZIKV sNS1 (full-length ZIKV NS1, residues 3-352, GZ02 strain) (Zika virus, strain GZ02, UniProt A0A146CJG7, strain). Nature of the assay: cryo-EM structure.
Another assay concerns the target ZIKV-derived sNS1 (Zika virus, strain ; stand-in …, UniProt A0A146CJG7). In words: ELISA. A general note: ELISA stands for enzyme-linked immunosorbent assay.
Another assay has as its target cell-surface ZIKV NS1 (Zika virus, strain ; stand-in …, UniProt A0A146CJG7). In words: flow cytometry on cells. (In general: Flow cytometry measures light scatter and fluorescence of single cells or particles in a stream.)
The next assay concerns the target DENV2 NS1 (Dengue virus 2, strain ; …, UniProt P29990). In words: ELISA.
For another assay, the target named is DENV4 NS1 (Dengue virus 4, strain ; …, UniProt P09866). In words: ELISA.

In general, stoichiometry N refers to a count of units in the complex or per binding partner. A word on the Kd: it is the concentration at which binding is half-saturated.

Several values for one entry are separate records, joined by “and”; a condition that tells them apart may be missing. Equal entries are not always repeated.

Sequence of DENV2 NS1 (P29990 776-1127): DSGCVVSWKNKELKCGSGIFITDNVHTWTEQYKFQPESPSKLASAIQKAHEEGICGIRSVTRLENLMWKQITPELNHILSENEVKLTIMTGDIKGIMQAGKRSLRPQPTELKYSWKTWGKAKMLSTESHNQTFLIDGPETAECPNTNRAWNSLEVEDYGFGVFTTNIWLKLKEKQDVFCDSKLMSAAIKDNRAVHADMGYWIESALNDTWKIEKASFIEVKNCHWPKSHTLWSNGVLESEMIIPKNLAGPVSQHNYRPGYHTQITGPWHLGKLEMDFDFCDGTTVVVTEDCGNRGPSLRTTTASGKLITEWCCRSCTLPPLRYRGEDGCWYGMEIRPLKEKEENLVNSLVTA
Sequence of DENV4 NS1 (P09866 775-1126): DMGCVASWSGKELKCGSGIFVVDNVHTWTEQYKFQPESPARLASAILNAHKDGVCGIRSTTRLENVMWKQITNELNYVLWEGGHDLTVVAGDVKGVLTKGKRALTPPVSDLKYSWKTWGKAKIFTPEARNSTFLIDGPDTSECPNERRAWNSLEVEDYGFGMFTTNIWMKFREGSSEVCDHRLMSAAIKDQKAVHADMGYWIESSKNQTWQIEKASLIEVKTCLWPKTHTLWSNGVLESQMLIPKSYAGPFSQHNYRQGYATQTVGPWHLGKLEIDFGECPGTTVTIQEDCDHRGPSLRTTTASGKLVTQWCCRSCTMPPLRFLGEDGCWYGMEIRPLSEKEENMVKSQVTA

With “recombinant ZIKV sNS1 (full-length ZIKV NS1, residues 3-352, GZ02 strain) (natural protein)”, the stoichiometry N in assay [1] amounted to 4.

B1: Fab 3G2 (Fab, V domains shown)
VH: EVQLLESGGGLIQPGGSLRLSCAASGLTVSNNYMNWVRQAPGKGLEWVSIIYSSGSTYYADSVKGRFTISRDTRKNTLYLQMHSLRVEDTAVYYCARERGWLDYWGQGTLVTVSS
VL: VIWMTQSPSSLSASVGDRVTITCRASQSVSSHLNWYQQKPGKAPKLLIYAVSSLQSGVPSRFSGGDSGTDFTLTIASLQPEDFATYYCQQTYTIPRTFGQGTKVEIK
As to B1, the “stoichiometry N” value in assay [2] was 1 ratio Fab to NS1 and 4 copies of Fab fragment for each NS1 tetramer.

B2: mAb 3G2 (IgG) (antibody, V domains shown)
VH: EVQLLESGGGLIQPGGSLRLSCAASGLTVSNNYMNWVRQAPGKGLEWVSIIYSSGSTYYADSVKGRFTISRDTRKNTLYLQMHSLRVEDTAVYYCARERGWLDYWGQGTLVTVSS
VL: VIWMTQSPSSLSASVGDRVTITCRASQSVSSHLNWYQQKPGKAPKLLIYAVSSLQSGVPSRFSGGDSGTDFTLTIASLQPEDFATYYCQQTYTIPRTFGQGTKVEIK
The molecule B2 registered an equilibrium dissociation constant (Kd) with ZIKV-derived sNS1 of 0.12 ± 0.02 nM. The “percentage of cell staining at 10 ug/ml” value with cell-surface ZIKV NS1 was 76%.

B3: Fab 2E11 (Fab, V domains shown)
VH: SVELIESGGGVVQPGRSLRLSCAASGFTFSNYAMHWVRQAPGKGLEWVAFISYDGSNKYYADSVKGRFTISRDNSKNTLSLQMNSLRAEDTALYYCARVFNGYEGDYWGQGTLVTVSS
VL: LPVLTQPPSVSVSPGQTARITCSGDALPKKYAYWYQQKSGQAPVLVIYEDSKRPSGIPERFSGSSSGTMATLTISGAQVEDEADYYCYSTDSSGNLYVFGTGTKVTVL
With B3, in assay [2], the “stoichiometry N” value was 1 ratio Fab to NS1.

B4: mAb 2E11 (IgG) (antibody, V domains shown)
VH: SVELIESGGGVVQPGRSLRLSCAASGFTFSNYAMHWVRQAPGKGLEWVAFISYDGSNKYYADSVKGRFTISRDNSKNTLSLQMNSLRAEDTALYYCARVFNGYEGDYWGQGTLVTVSS
VL: LPVLTQPPSVSVSPGQTARITCSGDALPKKYAYWYQQKSGQAPVLVIYEDSKRPSGIPERFSGSSSGTMATLTISGAQVEDEADYYCYSTDSSGNLYVFGTGTKVTVL
With B4, the equilibrium dissociation constant (Kd) with ZIKV-derived sNS1 came out at 0.22 ± 0.04 nM. Also, in the assay with cell-surface ZIKV NS1, the “percentage of cell staining at 10 ug/ml” value was determined as 59%.

B5: Fab 4F10 (Fab, V domains shown)
VH: EVQLLESGPGLVKPSQTLSLTCTVSGGSISSGGYYWSWIRQHPGKGLEWIGYIYYSGSTYYNPSLKSRVAMSVDTSKNQFSLTLSSVTAADTAVYYCARAIDNFYDNSIWGQGTLVTVSS
VL: DIQMTQSPSSLSASVGDRVTIACRASQSITNFLNWYQQKPGKAPKLLIYAVSNLQSGVPSRFSGSGSGTDFTLTISSVRPEDFATYFCQQSYSPPYTFGQGTKVDIK
On to B5, for which the “stoichiometry N” value in assay [2] is 1 ratio Fab to NS1.

B6: mAb 4F10 (IgG) (antibody, V domains shown)
VH: EVQLLESGPGLVKPSQTLSLTCTVSGGSISSGGYYWSWIRQHPGKGLEWIGYIYYSGSTYYNPSLKSRVAMSVDTSKNQFSLTLSSVTAADTAVYYCARAIDNFYDNSIWGQGTLVTVSS
VL: DIQMTQSPSSLSASVGDRVTIACRASQSITNFLNWYQQKPGKAPKLLIYAVSNLQSGVPSRFSGSGSGTDFTLTISSVRPEDFATYFCQQSYSPPYTFGQGTKVDIK
For the molecule B6, the binding result with DENV2 NS1 and in the assay with DENV4 NS1 was “binds” each time. In the assay with ZIKV-derived sNS1, this molecule registered an equilibrium dissociation constant (Kd) of 0.06 ± 0.01 nM. For the same molecule, in the assay with cell-surface ZIKV NS1, the “percentage of cell staining at 10 ug/ml” value turned out to be 58%.

B7: Fab 4B8 (Fab, V domains shown)
VH: EVQLVESGGGLIQPGGSLRLSCAASGFTISSKYMSWVRQAPGKGLEWVSIIYSSGSTYYADSVKGRFTISRDISKNTLYLQMNSLRAEDTAVYYCASLGSGSAFGYWGQGTLVTVSS
VL: DIVMTQSPSSVSASVGDRVTITCRASQGISTWLAWYQQKPGKAPRLLIYAASSLQSGVPSRFSGSGSGTDFTLTISSLQPEDFATYYCQQANSFPFTFGPGTKVEIK
Consider B7, for which the “stoichiometry N” value in assay [2] is 1 ratio Fab to NS1 and 4 copies of Fab fragment for each NS1 tetramer.

B8: mAb 4B8 (IgG) (antibody, V domains shown)
VH: EVQLVESGGGLIQPGGSLRLSCAASGFTISSKYMSWVRQAPGKGLEWVSIIYSSGSTYYADSVKGRFTISRDISKNTLYLQMNSLRAEDTAVYYCASLGSGSAFGYWGQGTLVTVSS
VL: DIVMTQSPSSVSASVGDRVTITCRASQGISTWLAWYQQKPGKAPRLLIYAASSLQSGVPSRFSGSGSGTDFTLTISSLQPEDFATYYCQQANSFPFTFGPGTKVEIK
B8 came in with a dissociation constant Kd in the assay with ZIKV-derived sNS1 of 0.8 ± 0.33 nM. For the same molecule, the “percentage of cell staining at 10 ug/ml” value with cell-surface ZIKV NS1 stood at 70%.

B9: Fab 14G5 (Fab, V domains shown)
VH: QVQLVQSGAEVKKPGESLKISCKGSGYSFTSYWIGWVRQMPGKGLEWMGIIYPGDSDTRYSPSFQGQVTMSADRSISTAYLQWSSLKASDTAMYYCARSNVDGSTDYWGQGTLVTVSS
VL: SYELTQPPSVSVSPGQTARITCSGDALPKQYAFWYQQKPGQAPVLVIYKDSERPSGIPERFSGSSSGTTVTLTISGVQAEDEADYYCQSADSSDTYVPYVFGTGTKVTVL
B9: in assay [2], the “stoichiometry N” value was 1 ratio Fab to NS1.

B10: mAb 14G5 (IgG) (antibody, V domains shown)
VH: QVQLVQSGAEVKKPGESLKISCKGSGYSFTSYWIGWVRQMPGKGLEWMGIIYPGDSDTRYSPSFQGQVTMSADRSISTAYLQWSSLKASDTAMYYCARSNVDGSTDYWGQGTLVTVSS
VL: SYELTQPPSVSVSPGQTARITCSGDALPKQYAFWYQQKPGQAPVLVIYKDSERPSGIPERFSGSSSGTTVTLTISGVQAEDEADYYCQSADSSDTYVPYVFGTGTKVTVL
As for B10, in the assay with ZIKV-derived sNS1, the Kd came out at 0.15 ± 0.03 nM. For the same molecule, in the assay with cell-surface ZIKV NS1, the “percentage of cell staining at 10 ug/ml” value was 63%.
